According to publication PMC10042821, “Cryo-EM structure of human eIF5A-DHS complex reveals the molecular basis of hypusination-associated neurodegenerative disorders” (Nature Communications, 2023):
Numbering of substitutions follows the chain as printed.

Columns and labels:
Assay in all cases: MST; Monolith NT.115; 8.32 nM His-tagged DHS labelled with RED-tris-NTA, eIF5A titrated 0.00175-57.5 uM; 50 mM Tris, 200 mM NaCl, 5 mM beta-ME pH 8; free buffer
Settings in all cases: both partners purified
[1] = biological target: T1, deoxyhypusine synthase, wild type, His-tagged (human, UniProt P49366 1-369)
T1 construct: deoxyhypusine synthase (DHS), Homo sapiens, UniProt P49366, residues 1-369; N-terminal 6xHis-tag followed by a TEV site (pET24d); tag kept for the His-tag labelling in MST; also called DHS; DHS^wt; source: E. coli, purified; His-tagged protein labelled with RED-tris-NTA for MST; not shown: His6, N-terminal, kept
T1 sequence (looked up): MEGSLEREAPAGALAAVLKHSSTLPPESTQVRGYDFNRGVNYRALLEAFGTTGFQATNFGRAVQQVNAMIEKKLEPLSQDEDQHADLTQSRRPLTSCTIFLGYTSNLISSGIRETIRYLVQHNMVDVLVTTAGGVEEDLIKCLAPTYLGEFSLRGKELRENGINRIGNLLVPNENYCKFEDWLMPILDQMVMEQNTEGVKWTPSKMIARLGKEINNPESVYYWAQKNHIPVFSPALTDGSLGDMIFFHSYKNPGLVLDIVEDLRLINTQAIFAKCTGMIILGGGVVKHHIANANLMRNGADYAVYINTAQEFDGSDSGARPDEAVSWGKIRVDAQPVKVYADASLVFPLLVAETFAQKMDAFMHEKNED

[2] = biological target: T2, deoxyhypusine synthase K329A, His-tagged (human, UniProt P49366 1-369, K329A)
T2 construct: deoxyhypusine synthase (DHS), Homo sapiens, UniProt P49366, residues 1-369; also called DHS^K329A; source: E. coli, purified; His-tagged protein labelled with RED-tris-NTA for MST; not shown: His6, N-terminal, kept
T2 sequence (looked up): T1 sequence (looked up) with K329A

[3] = biological target: T3, deoxyhypusine synthase H288A, His-tagged (human, UniProt P49366 1-369, H288A)
T3 construct: deoxyhypusine synthase (DHS), Homo sapiens, UniProt P49366, residues 1-369; source: E. coli, purified; His-tagged protein labelled with RED-tris-NTA for MST; not shown: His6, N-terminal, kept
T3 sequence (looked up): T1 sequence (looked up) with H288A

[4] = biological target: T4, deoxyhypusine synthase W327A, His-tagged (human, UniProt P49366 1-369, W327A)
T4 construct: deoxyhypusine synthase (DHS), Homo sapiens, UniProt P49366, residues 1-369; source: E. coli, purified; His-tagged protein labelled with RED-tris-NTA for MST; not shown: His6, N-terminal, kept
T4 sequence (looked up): T1 sequence (looked up) with W327A

[5] = biological target: T5, deoxyhypusine synthase D243A, His-tagged (human, UniProt P49366 1-369, D243A)
T5 construct: deoxyhypusine synthase (DHS), Homo sapiens, UniProt P49366, residues 1-369; source: E. coli, purified; His-tagged protein labelled with RED-tris-NTA for MST; not shown: His6, N-terminal, kept
T5 sequence (looked up): T1 sequence (looked up) with D243A

- Kd [1]: 33.8 ± 8.5 nM
- Kd [2]: 129 ± 37.9 nM
- Kd [3]: 49.7 ± 28.7 nM
- Kd [4]: 602 ± 284 nM
- Kd [5]: 511 ± 182 nM
B1: eukaryotic translation factor 5A-1 (eIF5A-1), residues 15-151 (domain or fragment)
chain: not shown
notes: eIF5A1 (eukaryotic translation factor 5A-1), human, residues 15-151, from pET28-MHL (Addgene); The general purification removes the His tag with TEV; A His-tagged eIF5A1 was used only in the hypusination assay; source: E. coli, purified (HisTrap, TEV cleavage, reverse HisTrap, SEC); not shown: His tag, N-terminal, cleaved
